In patent publication US20160159928A1 (published 2016):

Key:
[1] = target: T1, CXCR1 (UniProt P25024 1-350, limits assumed); test: flow cytometry, IgG supernatant, fluorescent anti-human Fc; parental U2OS: 5
T1 construct: whole, on cells; also called CXCR1 receptor; CXCR1-U2OS
T1 sequence (looked up): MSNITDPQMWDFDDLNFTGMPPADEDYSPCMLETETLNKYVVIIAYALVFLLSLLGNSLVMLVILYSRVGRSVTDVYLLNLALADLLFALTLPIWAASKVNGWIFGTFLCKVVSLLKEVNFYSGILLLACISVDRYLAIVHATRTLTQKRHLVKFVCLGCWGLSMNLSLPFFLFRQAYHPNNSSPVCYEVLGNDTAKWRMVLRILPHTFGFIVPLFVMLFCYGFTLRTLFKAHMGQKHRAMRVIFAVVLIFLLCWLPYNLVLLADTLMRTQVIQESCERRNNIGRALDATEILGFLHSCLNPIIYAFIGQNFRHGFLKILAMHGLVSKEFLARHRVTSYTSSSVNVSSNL
Description: (§1) Briefly, a cell line expressing functionally validated CXCR1 derived from U2OS cells was obtained from DiscoveRx and cultured per manufacturer's instructions (Cat#93-0226C3, DiscoveRx Corporation, Freemont, Calif.). The parental cell line U2OS was obtained from ATCC and cultured under the same conditions as the CXCR1 cells. Cell culture supernatants were then tested for binding to cells by flow cytometry. The adherent U2OS or CXCR1-U2OS cells were dissociated with Accutase (Innovative Cell Technologies, Inc., San Diego, Calif.), neutralized with an equal volume of media containing 10% serum, centrifuged at 1000 g, and resuspended in PBS with 2% BSA. Next, cells were dispensed into microtiter plates to achieve between 30,000 to 300,000 cells per well, centrifuged again, and resuspended in cell culture supernatant containing expressed IgG, or a dilution of IgG-containing cell culture supernatant. A fluorescent-conjugated anti-Human Fc antibody was used to detect binding of the expressed antibody to cells.

[2] = target: T1, CXCR1; test: flow cytometry; fluorescence on CXCR1-U2OS over parental U2OS cells
Description: as §1

[3] = target: T1, CXCR1; test: as above; remark: listed apart in the source
Description: as §1

[4] = target: T1, CXCR1; test: flow cytometry, IgG 10 nM, 2% BSA in PBS plus 2 ug/ml heparin sulfate
Description: Transfections and ELISA were carried out as described above, and flow cytometry was used to evaluate CXCR1 binding specificity as previously described, with the modification that cells were resuspended in 2% BSA in PBS plus 2 ug/ml Heparin sulfate, and IgGs were normalized to 10 nM during incubation on cells.

[5] = target: T1, CXCR1; test: flow cytometry; CXCR1-U2OS over parental U2OS cells
[6] = target: T1, CXCR1; test: flow cytometry; secreted IgG, CXCR1-U2OS over parental U2OS cells

B1: BLV1H12 IgG (antibody)
VH: QVQLRESGPSLVKPSQTLSLTCTASGFSLSDKAVGWVRQAPGKALEWLGSIDTGGNTGYNPGLKSRLSITKDNSKSQVSLSVSSVTTEDSATYYCTSVHQETKKYQSCPDGYRERSDCSNRPACGTSDCCRVSVFGNCLTTLPVSYSYTYNYEWHVDVWGQGLLVTVSSAS
light: not shown
notes: also called ULcowV
fluorescence on CXCR1-U2OS cells [1]: 9
Ratio of CXCR1/Parental [2]: 1.9
FACS CXCR1/Parental Ratio [3]: 1.9

B2: VH1-46+CDR3-IL8 IgG (antibody)
VH: QVQLVQSGAEVKKPGASVKVSCKASGYTFTSYYMHWVRQAPGQGLEWMGIINPSGGSTSYAQKFQGRVTMTRDTSTSTVYMELSSLRSEDTAVYYCTSVHQETKKYQSPRSAKELRCQCIKTYSKPFHPKFIKELRVIESGPHCANTEIIVKLSDGRELCLDPKENWVQRVVEKFLKRAENSGSGSYTYNYEWHVDVWGQGLLVTVSSAS
light: not shown
notes: also called VH1-46 BLVCDR3IL8
fluorescence on CXCR1-U2OS cells [1]: 6
Ratio of CXCR1/Parental [2]: 1.1

B3: VH4-34+CDR3-IL8_CDR1 Cow with light chain V1-51 (antibody, human IgG1, lambda)
heavy: not shown
light: QSVLTQPPSVSAAPGQKVTISCSGSSSNIGNNYVSWYQQLPGTAPKLLIYDNNKRPSGIPDRFSGSKSGTSATLGITGLQTGDEADYYCASAEDSSSNAVFGSGTTLTVLGQPKAAPSVTLFPPSSEELQANKATLVCLISDFYPGAVTVAWKADSSPVKAGVETTTPSKQSNNKYAASSYLSLTPEQWKSHRSYSCQVTHEGSTVEKTVAPTECS
CXCR1 specificity (CXCR1/parental ratio) [4]: 7.2
CXCR1/Parental Ratio [5]: 2.4

B4: VH4-34+CDR3-IL8_CDR1 Cow_CDR2 Cow with light chain V1-51 (antibody, human IgG1, lambda)
heavy: not shown
light: QSVLTQPPSVSAAPGQKVTISCSGSSSNIGNNYVSWYQQLPGTAPKLLIYDNNKRPSGIPDRFSGSKSGTSATLGITGLQTGDEADYYCASAEDSSSNAVFGSGTTLTVLGQPKAAPSVTLFPPSSEELQANKATLVCLISDFYPGAVTVAWKADSSPVKAGVETTTPSKQSNNKYAASSYLSLTPEQWKSHRSYSCQVTHEGSTVEKTVAPTECS
notes: also called BID 35
CXCR1 specificity (CXCR1/parental ratio) [4]: 11.1
CXCR1/Parental Ratio [5]: 3.1

B5: VH1-24+CDR3-IL8 IgG (antibody)
VH: QVQLVQSGAEVKKPGASVKVSCKVSGYTLTELSMHWVRQAPGKGLEWMGGFDPEDGETIYAQKFQGRVTMTEDTSTDTAYMELSSLRSEDTAVYYCTSVHQETKKYQSPRSAKELRCQCIKTYSKPFHPKFIKELRVIESGPHCANTEIIVKLSDGRELCLDPKENWVQRVVEKFLKRAENSGSGSYTYNYEWHVDVWGQGLLVTVSSAS
light: not shown
notes: also called VH1-24 BLVCDR3IL8
fluorescence on CXCR1-U2OS cells [1]: 23
Ratio of CXCR1/Parental [2]: 4.3

B6: BLV1H12+CDR3-IL8 heavy chain with BLV1H12 light chain (SEQ ID NO: 412) (antibody, human IgG1)
heavy: not shown
light: QAVLNQPSSVSGSLGQRVSITCSGSSSNVGNGYVSWYQLIPGSAPRTLIYGDTSRASGVPDRFSGSRSGNTATLTISSLQAEDEADYFCASAEDSSSNAVFGSGTTLTVLGQPKSPPSVTLFPPSTEELNGNKATLVCLISDFYPGSVTVVWKADGSTITRNVETTRASKQSNSKYAASSYLSLTSSDWKSKGSYSCEVTHEGSTVTKTVKPSECS
FACS CXCR1/Parental Ratio [6]: 5

B7: VH4-34+CDR3-IL8 IgG (BLV1H12 light chain) (antibody)
VH: QVQLQQWGAGLLKPSETLSLTCAVYGGSFSGYYWSWIRQPPGKGLEWIGEINHSGSTNYNPSLKSRVTISVDTSKNQFSLKLSSVTAADTAVYYCTSVHQETKKYQSPRSAKELRCQCIKTYSKPFHPKFIKELRVIESGPHCANTEIIVKLSDGRELCLDPKENWVQRVVEKFLKRAENSGSGSYTYNYEWHVDVWGQGLLVTVSSAS
light: not shown
notes: also called VH4-34 BLVCDR3IL8
Ratio of CXCR1/Parental [2]: 9.3
FACS CXCR1/Parental Ratio [3]: 9.3

B8: VH4-34+CDR3-IL8_CDR2 Cow IgG (BLV1H12 light chain) (antibody)
VH: QVQLQQWGAGLLKPSETLSLTCAVYGGSFSGYYWSWIRQPPGKGLEWLGSIDTGGNTGYNPSLKSRVTISVDTSKNQFSLKLSSVTAADTAVYYCTSVHQETKKYQSPRSAKELRCQCIKTYSKPFHPKFIKELRVIESGPHCANTEIIVKLSDGRELCLDPKENWVQRVVEKFLKRAENSGSGSYTYNYEWHVDVWGQGLLVTVSSAS
light: not shown
notes: also called VH4-34 + CDR3-IL8 + Cow CDR2
FACS CXCR1/Parental Ratio [3]: 8

B9: VH4-34+CDR3-IL8_CDR2 E50S IgG (BLV1H12 light chain) (antibody)
VH: QVQLQQWGAGLLKPSETLSLTCAVYGGSFSGYYWSWIRQPPGKGLEWIGSINHSGSTNYNPSLKSRVTISVDTSKNQFSLKLSSVTAADTAVYYCTSVHQETKKYQSPRSAKELRCQCIKTYSKPFHPKFIKELRVIESGPHCANTEIIVKLSDGRELCLDPKENWVQRVVEKFLKRAENSGSGSYTYNYEWHVDVWGQGLLVTVSSAS
light: not shown
notes: also called VH4-34 + CDR3-IL8 + E50S
FACS CXCR1/Parental Ratio [3]: 4
